Source: US20230126400A1

Assays:
human MS4A4A (human) [1] = biological target: human MS4A4A (human) (UniProt Q96JQ5); test: flow cytometry (anti-mouse IgG Fc-APC) on U937 cells transfected with human MS4A4A (Plate B); untransfected U937 cells (Plate A): mean 240; no primary antibody on Plate B: 246
[2] = biological target: cynomolgus (cyno) MS4A4A (cynomolgus); test: flow cytometry (anti-mouse IgG Fc-APC) on 300.19 cells transfected with cyno MS4A4A (Plate E); untransfected 300.19 cells (Plate C): mean 111; no primary antibody on Plate E: 122
human MS4A4A (human) [3] = biological target: human MS4A4A (human) (UniProt Q96JQ5); test: flow cytometry (anti-mouse IgG Fc-APC) on 300.19 cells transfected with human MS4A4A (Plate D); untransfected 300.19 cells (Plate C): mean 111; no primary antibody on Plate D: 177
[4] = biological target: human MS4A4A-GFP 4A.Ala.35 (ECL2 deletion of GNS) (human) (UniProt Q96JQ5); test: FACS, HEK293T
human MS4A4A (human) [5] = biological target: human MS4A4A (human) (UniProt Q96JQ5); test: functional affinity, FACS titration on stably transfected 300.19 cells
human MS4A4A (human) [6] = biological target: human MS4A4A (human) (UniProt Q96JQ5); test: flow cytometry (anti-mouse IgG Fc-APC) on HEK293 cells transiently transfected with human MS4A4A (h4A_293); 293 parental cells: mean 131
[7] = biological target: cynomolgus (cyno) MS4A4A (cynomolgus); test: flow cytometry (anti-mouse IgG Fc-APC) on HEK293 cells transiently transfected with cyno MS4A4A (cy4A_293); 293 parental cells: mean 131
human MS4A4A (human) [8] = biological target: human MS4A4A (human) (UniProt Q96JQ5); test: flow cytometry (anti-mouse IgG Fc-APC) on U937 cells transfected with human MS4A4A (Plate B); untransfected U937 cells (Plate A): mean 387
[9] = biological target: cynomolgus (cyno) MS4A4A (cynomolgus); test: flow cytometry (anti-mouse IgG Fc-APC) on 300.19 cells transfected with cyno MS4A4A (Plate E); untransfected 300.19 cells (Plate C): mean 110
human MS4A4A (human) [10] = biological target: human MS4A4A (human) (UniProt Q96JQ5); test: flow cytometry (anti-mouse IgG Fc-APC) on 300.19 cells transfected with human MS4A4A (Plate D); untransfected 300.19 cells (Plate C): mean 110
human MS4A4A (human) [11] = biological target: human MS4A4A (human) (UniProt Q96JQ5); test: flow cytometry (anti-mouse IgG Fc-APC) on U937 cells transfected with human MS4A4A (Plate B); untransfected U937 cells (Plate A): mean 259
human MS4A4A (human) [12] = biological target: human MS4A4A (human) (UniProt Q96JQ5); test: flow cytometry (anti-mouse IgG Fc-APC) on U937 cells transfected with human MS4A4A (Plate B); untransfected U937 cells (Plate A): mean 229; no primary antibody on Plate B: 246
[13] = biological target: cynomolgus (cyno) MS4A4A (cynomolgus); test: flow cytometry (anti-mouse IgG Fc-APC) on 300.19 cells transfected with cyno MS4A4A (Plate E); untransfected 300.19 cells (Plate C): mean 106; no primary antibody on Plate E: 122
human MS4A4A (human) [14] = biological target: human MS4A4A (human) (UniProt Q96JQ5); test: flow cytometry (anti-mouse IgG Fc-APC) on 300.19 cells transfected with human MS4A4A (Plate D); untransfected 300.19 cells (Plate C): mean 106; no primary antibody on Plate D: 177
human MS4A4A (human) [15] = biological target: human MS4A4A (human) (UniProt Q96JQ5); test: flow cytometry (anti-mouse IgG Fc-APC) on U937 cells transfected with human MS4A4A (Plate B); untransfected U937 cells (Plate A): mean 247; no primary antibody on Plate B: 246

| Substance | Mean : APC-A [2] | Mean : APC-A (human MS4A4A (human) [3]) | Kd (human MS4A4A (human) [5]) [nM] | Mean : APC-A [9] | Mean : APC-A (human MS4A4A (human) [10]) | further results |
| --- | --- | --- | --- | --- | --- | --- |
| msIgG1 Isotype Ctrl (antibody) | 116 | 181 |  |  |  | Mean : APC-A (human MS4A4A (human) [1]): 248 |
| anti-MS4A4A antibody 5C12 (BioLegend) |  |  | 27 | 129 | 19500 | % binding compared to wildtype MS4A4A [4]: 1%; Mean : APC-A (human MS4A4A (human) [6]): 7160; Mean : APC-A [7]: 158; Mean : APC-A (human MS4A4A (human) [8]): 15000 |
| anti-MS4A4A antibody 3F2 (Millipore) |  |  | 9.5 | 128 | 21100 | Mean : APC-A (human MS4A4A (human) [11]): 14300 |
| msIgG2a Isotype Ctrl (antibody) |  |  |  |  |  | Mean : APC-A (human MS4A4A (human) [12]): 243; Mean : APC-A [13]: 109; Mean : APC-A (human MS4A4A (human) [14]): 155 |
| msIgG2b Isotype Ctrl (antibody) | 107 | 155 |  |  |  | Mean : APC-A (human MS4A4A (human) [15]): 234 |
| anti-MS4A4A antibody 4H2 (Kerafast) |  |  | 10 |  |  |  |
